# According to the supplement of paper PMC9112550, “Optimization of the antimicrobial peptide Bac7 by deep mutational scanning” (BMC Biology, 2022):
# System: Escherichia coli TOP10
# Assay: shrunken log2 fold change of peptide-encoding DNA abundance (4.5 h post-induction vs induction); higher = less antimicrobial activity (less host growth inhibition)
# Settings: time post-induction: 4.5 h; library: site-saturation at positions 5, 18, 19, 20
# 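Further: peptides expressed intracellularly from a pBAD plasmid library in pooled LB shake-flask culture, induced with 0.3% L-arabinose, DNA abundance read by NGS, three biological replicates, DESeq2 with apeglm shrinkage.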
row,Sequence,shrunken log2 fold change
1,RRIRTRPPRLPRPRPRPESNPRP,-0.178
2,RRIRARPPRLPRPRPRPVNIPRP,-0.123
3,RRIRFRPPRLPRPRPRPGDVPRP,-0.014
4,RRIRWRPPRLPRPRPRPWTMPRP,-0.146
5,RRIRLRPPRLPRPRPRPWGIPRP,-0.198
6,RRIRQRPPRLPRPRPRPYIFPRP,-0.547
7,RRIRQRPPRLPRPRPRPAHVPRP,-0.139
8,RRIRERPPRLPRPRPRPQYIPRP,-0.219
9,RRIRRRPPRLPRPRPRPTSQPRP,0.249
10,RRIRTRPPRLPRPRPRPSNPPRP,-0.663
11,RRIRWRPPRLPRPRPRPYSHPRP,-1.09
12,RRIRWRPPRLPRPRPRPSSMPRP,-0.411
13,RRIRMRPPRLPRPRPRPIAQPRP,0.726
14,RRIRRRPPRLPRPRPRPMWNPRP,0.00386
15,RRIRWRPPRLPRPRPRPNHRPRP,-0.0538
16,RRIRKRPPRLPRPRPRPVFEPRP,0.347
17,RRIRKRPPRLPRPRPRPPMTPRP,-0.00191
18,RRIRSRPPRLPRPRPRPIPTPRP,0.2
19,RRIRRRPPRLPRPRPRPMPNPRP,0.129
20,RRIRWRPPRLPRPRPRPMPYPRP,-0.0164
21,RRIRDRPPRLPRPRPRPTVQPRP,0.158
22,RRIRQRPPRLPRPRPRPETYPRP,-0.213
23,RRIRIRPPRLPRPRPRPQNVPRP,-0.173
24,RRIRHRPPRLPRPRPRPENQPRP,-0.243
25,RRIRPRPPRLPRPRPRPYPKPRP,-0.0921

row,Sequence,shrunken log2 fold change
1,RRIRGRPPRLPRPRPRPAEGPRP,0.335
2,RRIRHRPPRLPRPRPRPQYGPRP,-0.0192
3,RRIRMRPPRLPRPRPRPWVFPRP,0.152
4,RRIRWRPPRLPRPRPRPHHNPRP,-0.478
5,RRIRPRPPRLPRPRPRPYPDPRP,-0.145
6,RRIRQRPPRLPRPRPRPDVTPRP,0.143
7,RRIRMRPPRLPRPRPRPDGRPRP,-0.00101
8,RRIRFRPPRLPRPRPRPISLPRP,-0.452
9,RRIRYRPPRLPRPRPRPKLVPRP,-0.067
10,RRIRNRPPRLPRPRPRPMAYPRP,-0.161
11,RRIRCRPPRLPRPRPRPQDAPRP,0.0575
12,RRIRRRPPRLPRPRPRPFNLPRP,-0.109
13,RRIRTRPPRLPRPRPRPGSEPRP,-0.0538
14,RRIRHRPPRLPRPRPRPNQYPRP,-0.663
15,RRIRKRPPRLPRPRPRPQTPPRP,1.39
16,RRIRVRPPRLPRPRPRPMEFPRP,-0.03
17,RRIRTRPPRLPRPRPRPPRMPRP,0.165
18,RRIRHRPPRLPRPRPRPMMAPRP,0.183
19,RRIRCRPPRLPRPRPRPLGNPRP,-0.229
20,RRIRDRPPRLPRPRPRPTCLPRP,0.653
21,RRIRERPPRLPRPRPRPGVYPRP,-0.049
22,RRIRRRPPRLPRPRPRPSVYPRP,-0.0412
23,RRIRWRPPRLPRPRPRPALMPRP,0.159
24,RRIRNRPPRLPRPRPRPTRIPRP,-0.183
25,RRIRMRPPRLPRPRPRPQSVPRP,0.0409

row,Sequence,shrunken log2 fold change
1,RRIRHRPPRLPRPRPRPGDIPRP,-0.412
2,RRIRERPPRLPRPRPRPDCWPRP,-0.0875
3,RRIRTRPPRLPRPRPRPHWNPRP,-0.424
4,RRIRDRPPRLPRPRPRPMPAPRP,0.354
5,RRIRTRPPRLPRPRPRPIQQPRP,-0.229
6,RRIRHRPPRLPRPRPRPNGTPRP,-0.297
7,RRIRYRPPRLPRPRPRPKMMPRP,-1.3
8,RRIRSRPPRLPRPRPRPLQCPRP,0.116
9,RRIRWRPPRLPRPRPRPCIPPRP,-0.0746
10,RRIRGRPPRLPRPRPRPVKPPRP,0.268
11,RRIRHRPPRLPRPRPRPSATPRP,-0.00655
12,RRIRIRPPRLPRPRPRPADRPRP,-0.123
13,RRIRFRPPRLPRPRPRPMWYPRP,-0.0081
14,RRIRIRPPRLPRPRPRPWCVPRP,-0.698
15,RRIRMRPPRLPRPRPRPNCSPRP,0.135
16,RRIRHRPPRLPRPRPRPCRIPRP,-0.0589
17,RRIRRRPPRLPRPRPRPFEQPRP,0.105
18,RRIRARPPRLPRPRPRPHREPRP,0.0826
19,RRIRKRPPRLPRPRPRPGDTPRP,0.0879
20,RRIRWRPPRLPRPRPRPLCYPRP,0.0105
21,RRIRWRPPRLPRPRPRPEKYPRP,-0.357
22,RRIRHRPPRLPRPRPRPLGSPRP,0.0703
23,RRIRERPPRLPRPRPRPCMSPRP,-0.00711
24,RRIRHRPPRLPRPRPRPCGPPRP,-0.084
25,RRIRYRPPRLPRPRPRPRILPRP,-0.276

row,Sequence,shrunken log2 fold change
1,RRIRTRPPRLPRPRPRPWYEPRP,-0.145
2,RRIRMRPPRLPRPRPRPEPHPRP,1.43
3,RRIRTRPPRLPRPRPRPCMKPRP,-0.332
4,RRIRERPPRLPRPRPRPKNKPRP,-0.559
5,RRIRLRPPRLPRPRPRPAVWPRP,0.72
6,RRIRVRPPRLPRPRPRPCSHPRP,-0.246
7,RRIRPRPPRLPRPRPRPVTPPRP,0.125
8,RRIRKRPPRLPRPRPRPRYKPRP,0.15
9,RRIRCRPPRLPRPRPRPCENPRP,0.0291
10,RRIRDRPPRLPRPRPRPGVCPRP,0.358
11,RRIRQRPPRLPRPRPRPCKEPRP,0.00843
12,RRIRWRPPRLPRPRPRPDPWPRP,0.0147
13,RRIRWRPPRLPRPRPRPSQMPRP,-0.681
14,RRIRQRPPRLPRPRPRPVGSPRP,0.317
15,RRIRSRPPRLPRPRPRPGDYPRP,-0.0123
16,RRIRYRPPRLPRPRPRPKPFPRP,0.0506
17,RRIRCRPPRLPRPRPRPRGQPRP,-0.0954
18,RRIRMRPPRLPRPRPRPYAMPRP,-0.155
19,RRIRCRPPRLPRPRPRPWEEPRP,0.0492
20,RRIRPRPPRLPRPRPRPASMPRP,-0.295
21,RRIRCRPPRLPRPRPRPYMCPRP,-0.233
22,RRIRHRPPRLPRPRPRPRQAPRP,0.495
23,RRIRTRPPRLPRPRPRPMCMPRP,-0.0542
24,RRIRIRPPRLPRPRPRPEMYPRP,-0.174
25,RRIRERPPRLPRPRPRPYRLPRP,-0.102

row,Sequence,shrunken log2 fold change
1,RRIRKRPPRLPRPRPRPWCYPRP,-0.168
2,RRIRGRPPRLPRPRPRPHETPRP,-0.022
3,RRIRPRPPRLPRPRPRPCPWPRP,0.889
4,RRIRERPPRLPRPRPRPGYVPRP,-0.227
5,RRIRARPPRLPRPRPRPMLQPRP,0.454
6,RRIRARPPRLPRPRPRPFAHPRP,0.128
7,RRIRQRPPRLPRPRPRPKRCPRP,0.129
8,RRIRKRPPRLPRPRPRPFWVPRP,-0.175
9,RRIRCRPPRLPRPRPRPASEPRP,0.49
10,RRIRWRPPRLPRPRPRPIAWPRP,0.713
11,RRIRWRPPRLPRPRPRPMHFPRP,-0.00884
12,RRIRCRPPRLPRPRPRPIVSPRP,-0.506
13,RRIRFRPPRLPRPRPRPTWFPRP,0.0971
14,RRIRGRPPRLPRPRPRPTQEPRP,1.38
15,RRIRPRPPRLPRPRPRPWTGPRP,-0.125
16,RRIRSRPPRLPRPRPRPWFFPRP,-0.197
17,RRIRWRPPRLPRPRPRPTWLPRP,0.694
18,RRIRIRPPRLPRPRPRPVDVPRP,-0.675
19,RRIRWRPPRLPRPRPRPKHVPRP,0.254
20,RRIRPRPPRLPRPRPRPYLWPRP,-0.769
21,RRIRVRPPRLPRPRPRPQHVPRP,-0.0853
22,RRIRARPPRLPRPRPRPEHNPRP,-0.0925
23,RRIRPRPPRLPRPRPRPEFRPRP,-0.00133
24,RRIRIRPPRLPRPRPRPKFRPRP,-0.0682
25,RRIRMRPPRLPRPRPRPGLNPRP,0.223
